Data from article PMC6061880.

Tests used:
Experiment in all cases: EMSA
Details in all cases: 10 mM Tris-Cl pH 7.5, 10 mM MgCl2, 100 mM KCl, 0.5 ug/ul yeast RNA, 7.5% glycerol, SUPERase In; 5 nM RNA; 30 min at 37 C; 6% native PAGE at 4 C
[1] = tested on: T1, RsmN (Pseudomonas aeruginosa), ORF:fe30c157
T1 sequence: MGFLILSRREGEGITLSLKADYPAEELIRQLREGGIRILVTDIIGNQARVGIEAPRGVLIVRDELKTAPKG

[2] = molecular target: RsmA (Pseudomonas aeruginosa) (UniProt O69078)
[3] = tested on: RsmN (Pseudomonas aeruginosa)

Chain of RsmA (Pseudomonas aeruginosa) (O69078 whole entry): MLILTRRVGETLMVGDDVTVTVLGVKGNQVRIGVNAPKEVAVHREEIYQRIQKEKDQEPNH

Substance | binding [2] | Kd [3] | Kd [1] | further results
GGCAUCAGCGACCAAAGCAAUCCGUUUGCUAUUGAACUCCCAGCCUGGGAGAUAUCCCUGAAGCGACUGGCUCAAGGGACGGGUCGACAAACAAAAACAACAAGCCCGAAAUCAUAAUAAAAACAAAGCACGCACCUACUUGGGGGGGGGUUUUUUUU [3' CrcZ] | binds | – | – | binding [1]: no binding
GGGUCAGGACAUUGCGCAGGAAGCGCCAAAGACAAUACGGAAACUCAGGGAAUCCACCAUGGAUGGUGGCGUAGCACGGAUGUCAGGAUAGAGGUCUGCAAAACCCCGCCCAAAAGGCGGGGGGGGGUUUUUUUU [RsmY full length] | binds | – | – | binding [1]: binds
5' CrcZ | – | 112 nM | – | –
fhA1 leader RNA | – | 61 nM | – | –
mucA internal RNA | – | 148 nM | – | –
GGAAACUCUGUCCGCUGUGAUGGAUAACGAAGCGGAUGAACUCGAGUUGCGGCGGGUGCUCGCAGCUUGCGGCGAGGAUGCCGAGCUGCGUUCCACCUGGUCGCGUUACCAGUUGGCGCGGUCCGUCAUGCACCGCGAGCCUACCCUGCCGAAGCUGGAUAUCGCUGCGGCGGUCUCUGCUGCCCUGGCCGACGAGGCCGCUCCGCCGAAAGCGGAGAAGGGACCGUGGCGGAUGGUCGGUCGGGGGGGGGUUUUUUUU [mucA internal RNA] | – | – | 148 nM | Kd [2]: binds
GGUAACGACUCCAGCACAACAAAAACAAAAUCGCGGAGGCGCAGCUAACUGAUUCUUUUGGAGAGGAGUUGCUGUCGGGACCCGUCCCGCAGCCAGUCGGAAGAAGAAUAAAACUGCCUUGAGGCAGCGCACAGACUGGUUGGAUCGCUCGACGAUCAUGGCAGCAUCAGGGGGGGGGUUUUUUUU [5' CrcZ] | no binding | – | 112 nM | –
pslA RNA (non-specific) | – | > 1000 nM | – | –
GGACAAAAUAAGCAAAUGGAGCGUAUGACCAUGGACAAACCGGCCUCGCGGCAUUUCAGCGUCUUGAUCAUCGAUGAUGAACCCCAGGUGACCUCGGAACUCCGCGAACUGCUGGAAAACGGGGGGGGGUUUUUUUU [pprB leader RNA] | binds | – | 227 nM | –
pprB leader RNA | – | 227 nM | – | –
